Assay results published in patent publication US20230095004 (Aptitude Medical Systems, Inc., published 2023).

T1: VEGF-165 (VEGF-A) (Homo sapiens)
T1 chain: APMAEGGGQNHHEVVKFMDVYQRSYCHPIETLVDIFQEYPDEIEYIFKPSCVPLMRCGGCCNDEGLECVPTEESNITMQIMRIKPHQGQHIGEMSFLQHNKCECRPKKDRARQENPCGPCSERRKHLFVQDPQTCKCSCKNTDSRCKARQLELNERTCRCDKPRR


Target: T1, VEGF-165 (VEGF-A)
Test: flow; PBSMCT, 37 C
Details: tags: recombinant; chain copies: 2; label: biotin

Binder | Kd
ACCCUUGCUUGCGUAGCAUUUUACCAGUGAGUCGGAUCUC (ssRNA, 2'-F all nucleotides) | 11.1 nM
UGCAUGCAUUUUACCAGUGAGUCGGAUCUCCGCAUAUCUGCG (ssRNA, 2'-F all nucleotides) [AMS0433] | 0.041 nM

Each binder was assayed against T2, VEGF-121 (VEGF-A) (Homo sapiens, UniProt P15692 SEQ:1-121) (assay: flow; PBSMCT, 37 C). Details: tags: recombinant; chain copies: 2; label: biotin.

Binder | Kd
UGCAUGCAUUUUACCAGUGAGUCGGAUCUCCGCAUAUCUGCG (ssRNA, 2'-F all nucleotides) [AMS0433] | 0.052 nM

The binders below were run against T3, Angiopoietin-2 (Ang2) (Homo sapiens, UniProt O15123 O15123:19-496) (assay: competition; Ang2/Tie2 inhibition). Details: tags: His tag; R&D Systems 623-AN.
T3 sequence (O15123 19-496, one chain of several): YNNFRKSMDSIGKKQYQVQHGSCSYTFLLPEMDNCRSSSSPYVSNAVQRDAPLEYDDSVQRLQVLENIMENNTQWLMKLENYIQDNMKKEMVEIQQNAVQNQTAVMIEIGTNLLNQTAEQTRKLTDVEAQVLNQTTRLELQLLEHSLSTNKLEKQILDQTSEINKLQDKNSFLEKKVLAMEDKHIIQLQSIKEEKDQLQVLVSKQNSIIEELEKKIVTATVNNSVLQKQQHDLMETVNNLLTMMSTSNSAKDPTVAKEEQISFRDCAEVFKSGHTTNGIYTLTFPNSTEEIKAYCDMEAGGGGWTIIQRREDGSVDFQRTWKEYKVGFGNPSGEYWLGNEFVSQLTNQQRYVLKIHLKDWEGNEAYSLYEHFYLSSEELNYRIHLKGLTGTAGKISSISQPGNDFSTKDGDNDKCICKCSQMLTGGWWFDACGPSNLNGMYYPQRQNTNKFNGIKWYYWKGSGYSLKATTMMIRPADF

Binder | IC50
AMSB107 (ssRNA, 2'-F all) RNA: UGCAUGCAUUUUACCAGUGAGUCGGAUCUCCGCAUAGAUAAGCCAACAAACGUACAUUCUCUGUUAGUAUUUUCUGCG | ~0.1 nM

Target: T1, VEGF-165 (VEGF-A)
Test: competition; VEGF/VEGFR2 inhibition
Details: tags: R&D Systems 293-VE-050; chain copies: 2

Binder | IC50
AMSB107.1 (ssRNA, 2'-F all) RNA: UGCCAGUGAGUCGGAUCUCCGCAUAGAUAAGCCAACAAACGUACAUUCUCUGUUAGUAUUUUCUGCG | 21.5 nM
AMSB107.2 (ssRNA, 2'-F all) RNA: UGCCAGUGAGUCGGAUCUCCACAGUAGAUAAGCCAACAAACGUACAUUCUCUGUUAGUAUUUUCCUGUG | 19.4 nM
AMSB107 (ssRNA, 2'-F all) RNA: UGCAUGCAUUUUACCAGUGAGUCGGAUCUCCGCAUAGAUAAGCCAACAAACGUACAUUCUCUGUUAGUAUUUUCUGCG | 0.073 nM
AMSB107.4 (ssRNA, 2'-F all) RNA: GCAUGCUUUUACCAGUGAGUCGGAUCUCCGCAUAGAUAAGCCAACAAACGUACAUUCUCUGUUAGUAUUUUCUGCG | 0.081 nM
AMSB107.5 (ssRNA, 2'-F all) RNA: AUGCAUGCAUUUUUACCAGUGAGUCGGAUCUCCGCAUAGAUAAGCCAACAAACGUACAUUCUCUGUUAGUAUUUUCUGCG | 0.081 nM
AMSB107.6 (ssRNA, 2'-F all) RNA: UGCAUGCAACCAGUGAGUCGGAUCUCCGCAUAGAUAAGCCAACAAACGUACAUUCUCUGUUAGUAUUUUCUGCG | 0.551 nM
AMSB107.8 (ssRNA, 2'-F all) RNA: UUUUGCAUGCAUUUUACCAGUGAGUCGGAUCUCCGCAUAGAUAAGCCAACAAACGUACAUUCUCUGUUAGUAUUUUCUGCG | 0.255 nM
AMSB107.9 (ssRNA, 2'-F all) RNA: UGCAUGCAUUACCAGUGAGUCGGAUCUCCGCAUAGAUAAGCCAACAAACGUACAUUCUCUGUUAGUAUUUUCUGCG | 0.147 nM
AMSB107.10 (ssRNA, 2'-F all) RNA: UGCAUGCAUUUUUUACCAGUGAGUCGGAUCUCCGCAUAGAUAAGCCAACAAACGUACAUUCUCUGUUAGUAUUUUCUGCG | 0.17 nM
AMSB107.11 (ssRNA, 2'-F all) RNA: UGCAUGCAUUUUCCAGUGAGUCGGAUCUCCGCAUAGAUAAGCCAACAAACGUACAUUCUCUGUUAGUAUUUUCUGCG | 0.114 nM
AMSB107.12 (ssRNA, 2'-F all) RNA: CUGUACAGUUUUACCAGUGAGUCGGAUCUCCGCAUAGAUAAGCCAACAAACGUACAUUCUCUGUUAGUAUUUUCUGCG | 1.03 nM
AMSB107.13 (ssRNA, 2'-F all) RNA: CCGGUACCGGUUUUACCAGUGAGUCGGAUCUCCGCAUAGAUAAGCCAACAAACGUACAUUCUCUGUUAGUAUUUUCUGCG | 1 nM
AMSB107.14 (ssRNA, 2'-F all) RNA: UGCACUGCAUUUUACCAGUGAGUCGGAUCUCCGCAUAGAUAAGCCAACAAACGUACAUUCUCUGUUAGUAUUUUCUGCG | 3.27 nM
AMSB107.15 (ssRNA, 2'-F all) RNA: UGCAUCUGCAUUUUACCAGUGAGUCGGAUCUCCGCAUAGAUAAGCCAACAAACGUACAUUCUCUGUUAGUAUUUUCUGCG | 15.6 nM
AMSB107.17 (ssRNA, 2'-F all) RNA: GCUGUACAGCUUUUACCAGUGAGUCGGAUCUCCGCAUAGAUAAGCCAACAAACGUACAUUCUCUGUUAGUAUUUUCUGCG | 0.083 nM
AMSB107.18 (ssRNA, 2'-F with LNA (L) at positions as printed) RNA: UGCAUGCAUUUUACCAGUGAGUCGGAUCUCCGCAUAGAUAAGCCAACAAACGUACAUUCUCUGUUAGUAUUUUCUGCG | 0.422 nM
AMSB107.20 (ssRNA, 2'-F with LNA (L) in stems as printed) RNA: UGCAUGCAUUUUACCAGUGAGUCGGAUCUCCGCAUAGAUAAGCCAACAAACGUACAUUCUCUGUUAGUAUUUUCUGCG | 0.068 nM
AMSB107.21 (ssRNA, 2'-F with 2'-OMe in stems as printed) RNA: UGCAUGCAUUUUACCAGUGAGUCGGAUCUCCGCAUAGAUAAGCCAACAAACGUACAUUCUCUGUUAGUAUUUUCUGCG | 0.063 nM

Target: T1, VEGF-165 (VEGF-A)
Test: competition; VEGF receptor competition
Details: tags: recombinant; chain copies: 2

Binder | IC50
AMSB107.P40K (ssRNA, 2'-F all nucleotides; 5' 40 kDa PEG (SEQ 203 as printed in the description)) RNA: UGCAUGCAUUUUACCAGUGAGUCGGAUCUCCGCAUAGAUAAGCCAACAAACGUACAUUCUCUGUUAGUAUUUUCUGCG | 0.036 nM

Target: T1, VEGF-165 (VEGF-A)
Test: competition; VEGFR2 blocking ELISA, PBSMCT, 37 C
Details: tags: R&D Systems 293-VE-050; chain copies: 2

Binder | IC50
ACCCUUGCUUGCGUAGCAUUUUACCAGUGAGUCGGAUCUC (ssRNA, 2'-F all) | 27.5 nM
AMS0433.1 (ssRNA, 2'-F all) RNA: ACCCUUGCUUGCGUAGCAUUUUACCAGUGAGUCGGAUCUCCGCAUAUCUGCG | 1.73 nM
UGCCAGUGAGUCGGAUCUCCUGUGAGAACACAG (ssRNA, 2'-F all) [AMS0433.10] | 27.2 nM
AMS0433.11 (ssRNA, 2'-F all) RNA: CACAGAGAACUGUGCCUAGCAUUUUGCCAGUGAGUCGGAUCUCCGCAUAUCUGCG | 29.5 nM
AMS0433.13 (ssRNA, 2'-F all) RNA: UUUUGUGCUUGCGUAGCAACCCUCCAGUGAGUCGGAUCUCCGCAUAUCUGCG | 12.3 nM
ACCCUUGCUUGCGUAGCAUUUUACCAGUGAGUCGGAUCUCUGCAUGCA (ssRNA, 2'-F all) [AMS0433.15] | 2.17 nM
UUUUACCAGUGAGUCGGAUCUCUGCAUGCA (ssRNA, 2'-F all) [AMS0433.16] | 1.2 nM
UGCACUGCAUUUUACCAGUGAGUCGGAUCUCCGCAUAUCUGCG (ssRNA, 2'-F all) [AMS0433.17] | 0.983 nM
UGCAUCUGCAUUUUACCAGUGAGUCGGAUCUCCGCAUAUCUGCG (ssRNA, 2'-F all) [AMS0433.18] | 8.34 nM
CUGUACAGUUUUACCAGUGAGUCGGAUCUCCGCAUAUCUGCG (ssRNA, 2'-F all) [AMS0433.19] | 0.056 nM
UUUUGCAUGCAUUUUACCAGUGAGUCGGAUCUCCGCAUAUCUGCG (ssRNA, 2'-F all) [AMS0433.20] | 0.044 nM
UGCCAGUGAGUCGGAUCUCCGCAUAUCUGCGCGCAUAUCUGCG (ssRNA, 2'-F all) [AMS0433.2] | 9.26 nM
GCUGUACAGCUUUUACCAGUGAGUCGGAUCUCCGCAUAUCUGCG (ssRNA, 2'-F all) [AMS0433.21] | 0.064 nM
AMS0433.3 (ssRNA, 2'-F all) RNA: ACCCUUGCUUGCGUAGCAUUCUGCCAGUGAGUCGGAUCUCCGCAUAUCUGCG | 2.1 nM
AMS0433.4 (ssRNA, 2'-F all) RNA: ACCCUUGCUUGCGCAGCAUUCUGCCAGUGAGUCGGAUCUCCGCAUAUCUGCG | 1.96 nM
AMS0433.5 (ssRNA, 2'-F all) RNA: CACCAUGCUUGCGUAGCAUCAUCCAGUGAGUCGGAUCUCCGCAUAUCUGCG | 2.5 nM
CCCCAUCUGCGAAGCAGUCAGCCAGUGAGUCGGAUCUCCGCAUAUCUGCG (ssRNA, 2'-F all) [AMS0433.6] | 3.49 nM
CACAGAGAACUGUGUGCCAGUGAGUCGGAUCUCCGCAUAUCUGCG (ssRNA, 2'-F all) [AMS0433.7] | 8.23 nM
CGUAGCAUUUUGCCAGUGAGUCGGAUCUCCGCAUAUCUGCG (ssRNA, 2'-F all) [AMS0433.8] | 42.9 nM

Each binder was assayed against T3, Angiopoietin-2 (Ang2) (assay: competition; Ang2/Tie2 competition (column printed Tier2)). Details: tags: His tag; R&D Systems 623-AN.

Binder | IC50
AMSB107.P40K (ssRNA, 2'-F all nucleotides; 5' 40 kDa PEG (SEQ 203 as printed in the description)) RNA: UGCAUGCAUUUUACCAGUGAGUCGGAUCUCCGCAUAGAUAAGCCAACAAACGUACAUUCUCUGUUAGUAUUUUCUGCG | 0.045 nM

Target: T1, VEGF-165 (VEGF-A)
Test: competition; VEGFR2 competition ELISA, 50 pM VEGF-165, 37 C
Details: tags: recombinant; chain copies: 2

Binder | IC50
UGCAUGCAUUUUACCAGUGAGUCGGAUCUCCGCAUAUCUGCG (ssRNA, mixed 2'-F and 2'-OMe: fUfGfCfAfUfGfCfAmUmUmUmUmAmCfCfAfGfUfGfAfGfUmCfGfGfAmUfCfUfCmCmGmCmAmUmAmUmCmUmGmCmG) [AMS0433.m4] | 0.04 nM
UGCAUGCAUUUUACCAGUGAGUCGGAUCUCCGCAUAUCUGCG (ssRNA, mixed 2'-F and 2'-OMe: mUmGmCmAmUmGmCmAmUmUmUmUmAmCfCfAfGfUfGfAfGfUmCfGfGfAmUfCfUfCfCfGfCfAfUfAfUfCfUfGfCfG) [AMS0433.m6] | 0.041 nM

Same assay, conditions: tags: recombinant; chain copies: 2; label: biotin

Binder | IC50
UGCAUGCAUUUUACCAGUGAGUCGGAUCUCCGCAUAUCUGCG (ssRNA, 2'-F all nucleotides) [AMS0433] | 0.037 nM

The binders below were run against T2, VEGF-121 (VEGF-A) (assay: flow; bead-bound aptamer; PBSMCT 2.5 mM MgCl2 1 mM CaCl2, 37 C). Details: tags: recombinant; chain copies: 2; label: biotin.

Binder | Kd
ACCCUUGCUUGCGUAGCAUUUUACCAGUGAGUCGGAUCUC (ssRNA, 2'-F all nucleotides) | 15.2 nM
